In publication PMC12086086:

Experiments:
soft agar colony assay = conditions: glycan lost; control: parental PANC-1
[1] = XTT viability, 3-day gemcitabine; conditions: glycan lost; control: parental PANC-1
[2] = nocodazole release, PI flow cytometry; conditions: glycan lost; control: parental PANC-1
[3] = γH2AX, 53BP1, RPA immunofluorescence foci; conditions: glycan lost; control: parental PANC-1
blot = conditions: glycan lost; control: wild-type RRM1
Western blot and qPCR = conditions: glycan lost; control: parental PANC-1
[4] = low-attachment sphere assay; conditions: glycan lost; control: parental PANC-1
LIVE/DEAD staining = conditions: glycan lost; control: parental PANC-1
LC/MS = conditions: glycan lost; control: parental PANC-1

B1: ribonucleotide reductase large subunit M1 (RRM1): RRM1-T734A (protein)
parent chain: MHVIKRDGRQERVMFDKITSRIQKLCYGLNMDFVDPAQITMKVIQGLYSGVTTVELDTLAAETAATLTTKHPDYAILAARIAVSNLHKETKKVFSDVMEDLYNYINPHNGKHSPMVAKSTLDIVLANKDRLNSAIIYDRDFSYNYFGFKTLERSYLLKINGKVAERPQHMLMRVSVGIHKEDIDAAIETYNLLSERWFTHASPTLFNAGTNRPQLSSCFLLSMKDDSIEGIYDTLKQCALISKSAGGIGVAVSCIRATGSYIAGTNGNSNGLVPMLRVYNNTARYVDQGGNKRPGAFAIYLEPWHLDIFEFLDLKKNTGKEEQRARDLFFALWIPDLFMKRVETNQDWSLMCPNECPGLDEVWGEEFEKLYASYEKQGRVRKVVKAQQLWYAIIESQTETGTPYMLYKDSCNRKSNQQNLGTIKCSNLCTEIVEYTSKDEVAVCNLASLALNMYVTSEHTYDFKKLAEVTKVVVRNLNKIIDINYYPVPEACLSNKRHRPIGIGVQGLADAFILMRYPFESAEAQLLNKQIFETIYYGALEASCDLAKEQGPYETYEGSPVSKGILQYDMWNVTPTDLWDWKVLKEKIAKYGIRNSLLIAPMPTASTAQILGNNESIEPYTSNIYTRRVLSGEFQIVNPHLLKDLTERGLWHEEMKNQIIACNGSIQSIPEIPDDLKQLYKTVWEISQKTVLKMAAERGAFIDQSQSLNIHIAEPNYGKLTSMHFYGWKQGLKTGMYYLRTRPAANPIQFTLNKEKLKDKEKVSKEEEEKERNTAAMVCSLENRDECLMCGS
other: colony formation (soft agar colony assay): decreases
other: gemcitabine sensitivity [1]: increases
other: S-phase duration [2]: increases
other: DNA damage and replication stress foci [3]: increases
other: RRM1 serine/threonine phosphorylation (blot): decreases
other: thymidine phosphorylase (TP) expression (Western blot and qPCR): decreases
other: sphere formation [4]: decreases
other: cell death (LIVE/DEAD staining): no change
other: cellular NTP pools (LC/MS): decreases
